According to paper PMC6520340, “Development of a ribonuclease containing a G4-specific binding motif for programmable RNA cleavage”:

Target: RHAU140-RNase HI fusion (Homo sapiens (RHAU) / Bacillus …, UniProt Q9H2U1 53-192+=SGGGSGGGSGGGSGGG+Q9KEI9:59-196, internal_change)
Test: EMSA; 10 uM DNA, 50 uM protein; 100 mM K+; Native 10% PAGE in 1X TBE, 20 mM potassium phosphate, 100 mM KCl, pH 7.0; UV shadowing; temperature not stated
Settings: protein: recombinant

Sequence of RHAU140-RNase HI fusion (Q9H2U1 other isoform, or with tags, fused parts or gaps): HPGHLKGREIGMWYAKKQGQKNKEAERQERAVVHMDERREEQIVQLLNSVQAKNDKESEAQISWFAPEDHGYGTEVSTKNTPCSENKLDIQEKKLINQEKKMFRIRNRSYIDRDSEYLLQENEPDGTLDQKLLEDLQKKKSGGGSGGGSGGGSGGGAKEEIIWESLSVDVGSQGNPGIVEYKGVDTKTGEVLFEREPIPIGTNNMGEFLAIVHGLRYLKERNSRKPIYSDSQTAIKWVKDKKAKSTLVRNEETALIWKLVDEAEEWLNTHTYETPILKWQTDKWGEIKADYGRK

| Binder | binding result (parallel G4 with 3' single-stranded tail) | binding result (single strand) |
| --- | --- | --- |
| TTGGGTGGGTGGGTGGGTTCAACGACGACGGCATCATC (structured_DNA) [B1] | binds | – |
| TTGACTAAGTGCCTTAGTTCAACGACGACGGCATCATC (ssDNA) [B0] | – | no binding |
